The text below walks through data of paper PMC5961129.

The target of data set [1] is PUF-12R (human, engineered, UniProt Q14671 828-1027+992-1142+1028-1176, internal_change). As to the kind of experiment: FP.
For data set [2], the target named is PUF-8R N1080Y (human, UniProt Q14671 828-1176, N1080Y). Description: FP.
Data set [3] addresses PUF-8R H972Y (human, UniProt Q14671 828-1176, H972Y). As to the kind of experiment: FP.
In data set [4] the target is PUF-8R (Pumilio1 PUF domain, wild type) (human, UniProt Q14671 828-1176). Description: FP.
For data set [5], the target named is PUF-8R R1008Y (human, UniProt Q14671 828-1176, R1008Y). As to the kind of experiment: FP.
For data set [6], the target named is PUF-10R (human, engineered, UniProt Q14671 828-955+992-1142+1028-1176, internal_change). As to the kind of experiment: FP.
The target in data set [7] is T1, PUF-9R (human, engineered, UniProt Q14671 828-955+1028-1142+1028-1176, internal_change). Description: crystal structure.
Data set [8] addresses T1, PUF-9R. Description: FP.

Take AAUUGUUGUAAUAUAUUC (ssRNA) [12nt-RNA]: in data set [1], the binding result is “binds”.

As for AAUUGUAUAUAUUC (ssRNA) [8nt-RNA], the binding signal in data set [2] is above 8 fold Ka vs PUF-8R R1008N. Further, the binding result in data set [3], in data set [4] and in data set [5] was “binds” in each case. As to AAUUGUUGUAAUAUUC (ssRNA) [10nt-RNA], in data set [6], the binding signal was ~7 fold Ka vs PUF-8R:RNA-8nt. With UGUUGUAUA (ssRNA) [RNA-9nt (crystal)], in data set [7], the binding result was “binds”. AAUUGUUGUAUAUUC (ssRNA) [9nt-RNA]: the binding signal in data set [8] was ~12 fold Ka vs PUF-8R:RNA-8nt.
